Data reported in article PMC4611711.

Molecular target: truncated Bid (tBid) of cleaved Bid (cBid) 190C labeled with Alexa Fluor 488 (murine) (UniProt P70444)

Kd: 40 nM
Substance: p7 fragment of Bid (from cleaved Bid 190C) (domain or fragment)
